# Source: PMC4462073, “Insights into the evolution of enzyme substrate promiscuity after the discovery of (βα)8 isomerase evolutionary intermediates from a diverse metagenome” (BMC Evolutionary Biology, 2015)
# B1: HisA_Afer (Acidimicrobium ferrooxidans DSM 10331) (protein)
# chain: MELVVAVDLLDGEAVRLRQGRFDAPRRFGDPRRYVEGALDAGARWFHVVDLDRARTPGDRRNADMVGDLIALVREAGGSVEVGGGVRTARDIAELLETGASRVVLGTALVEETLDELDPEHLVAALDYRRGDEGALEVVVSAWERSGGRRLLEASARLFARGVRTQLLTDVGRDGMASGPDLGTYQGLCEVVPVEVIASGGVASADDLAKLAAIRGARGAVWGAVVGTALLDGSLGFDEALSACRA
# notes: codon-optimised synthetic gene in pET22b (NdeI/HindIII), expressed in E. coli, purified
# Substrate: NC(=O)c1ncn([C@@H]2O[C@H](COP(=O)(O)O)[C@@H](O)[C@H]2O)c1N=CN[C@@H]1O[C@H](COP(=O)(O)O)[C@@H](O)[C@H]1O
# Assay: purified protein
# Format: biochemical, Acidimicrobium ferrooxidans
protein,measurement,value
B1,Km,1.1 ± 0.2 µM
same,kcat,0.05 ± 0.001 s⁻¹
same,kcat/Km,45000 M⁻¹ s⁻¹
